# Laboratory results published in patent US20210171613A1.
# Target: Clostridium difficile toxin A (TcdA) (Clostridium difficile), P16154
# Assay: SPR (Biacore 3000), VHH over immobilized TcdA, 1:1 fit
# Conditions: remark: other sources report otherwise
# Sequence of Clostridium difficile toxin A (TcdA) (Clostridium difficile), P16154 (P16154 whole entry): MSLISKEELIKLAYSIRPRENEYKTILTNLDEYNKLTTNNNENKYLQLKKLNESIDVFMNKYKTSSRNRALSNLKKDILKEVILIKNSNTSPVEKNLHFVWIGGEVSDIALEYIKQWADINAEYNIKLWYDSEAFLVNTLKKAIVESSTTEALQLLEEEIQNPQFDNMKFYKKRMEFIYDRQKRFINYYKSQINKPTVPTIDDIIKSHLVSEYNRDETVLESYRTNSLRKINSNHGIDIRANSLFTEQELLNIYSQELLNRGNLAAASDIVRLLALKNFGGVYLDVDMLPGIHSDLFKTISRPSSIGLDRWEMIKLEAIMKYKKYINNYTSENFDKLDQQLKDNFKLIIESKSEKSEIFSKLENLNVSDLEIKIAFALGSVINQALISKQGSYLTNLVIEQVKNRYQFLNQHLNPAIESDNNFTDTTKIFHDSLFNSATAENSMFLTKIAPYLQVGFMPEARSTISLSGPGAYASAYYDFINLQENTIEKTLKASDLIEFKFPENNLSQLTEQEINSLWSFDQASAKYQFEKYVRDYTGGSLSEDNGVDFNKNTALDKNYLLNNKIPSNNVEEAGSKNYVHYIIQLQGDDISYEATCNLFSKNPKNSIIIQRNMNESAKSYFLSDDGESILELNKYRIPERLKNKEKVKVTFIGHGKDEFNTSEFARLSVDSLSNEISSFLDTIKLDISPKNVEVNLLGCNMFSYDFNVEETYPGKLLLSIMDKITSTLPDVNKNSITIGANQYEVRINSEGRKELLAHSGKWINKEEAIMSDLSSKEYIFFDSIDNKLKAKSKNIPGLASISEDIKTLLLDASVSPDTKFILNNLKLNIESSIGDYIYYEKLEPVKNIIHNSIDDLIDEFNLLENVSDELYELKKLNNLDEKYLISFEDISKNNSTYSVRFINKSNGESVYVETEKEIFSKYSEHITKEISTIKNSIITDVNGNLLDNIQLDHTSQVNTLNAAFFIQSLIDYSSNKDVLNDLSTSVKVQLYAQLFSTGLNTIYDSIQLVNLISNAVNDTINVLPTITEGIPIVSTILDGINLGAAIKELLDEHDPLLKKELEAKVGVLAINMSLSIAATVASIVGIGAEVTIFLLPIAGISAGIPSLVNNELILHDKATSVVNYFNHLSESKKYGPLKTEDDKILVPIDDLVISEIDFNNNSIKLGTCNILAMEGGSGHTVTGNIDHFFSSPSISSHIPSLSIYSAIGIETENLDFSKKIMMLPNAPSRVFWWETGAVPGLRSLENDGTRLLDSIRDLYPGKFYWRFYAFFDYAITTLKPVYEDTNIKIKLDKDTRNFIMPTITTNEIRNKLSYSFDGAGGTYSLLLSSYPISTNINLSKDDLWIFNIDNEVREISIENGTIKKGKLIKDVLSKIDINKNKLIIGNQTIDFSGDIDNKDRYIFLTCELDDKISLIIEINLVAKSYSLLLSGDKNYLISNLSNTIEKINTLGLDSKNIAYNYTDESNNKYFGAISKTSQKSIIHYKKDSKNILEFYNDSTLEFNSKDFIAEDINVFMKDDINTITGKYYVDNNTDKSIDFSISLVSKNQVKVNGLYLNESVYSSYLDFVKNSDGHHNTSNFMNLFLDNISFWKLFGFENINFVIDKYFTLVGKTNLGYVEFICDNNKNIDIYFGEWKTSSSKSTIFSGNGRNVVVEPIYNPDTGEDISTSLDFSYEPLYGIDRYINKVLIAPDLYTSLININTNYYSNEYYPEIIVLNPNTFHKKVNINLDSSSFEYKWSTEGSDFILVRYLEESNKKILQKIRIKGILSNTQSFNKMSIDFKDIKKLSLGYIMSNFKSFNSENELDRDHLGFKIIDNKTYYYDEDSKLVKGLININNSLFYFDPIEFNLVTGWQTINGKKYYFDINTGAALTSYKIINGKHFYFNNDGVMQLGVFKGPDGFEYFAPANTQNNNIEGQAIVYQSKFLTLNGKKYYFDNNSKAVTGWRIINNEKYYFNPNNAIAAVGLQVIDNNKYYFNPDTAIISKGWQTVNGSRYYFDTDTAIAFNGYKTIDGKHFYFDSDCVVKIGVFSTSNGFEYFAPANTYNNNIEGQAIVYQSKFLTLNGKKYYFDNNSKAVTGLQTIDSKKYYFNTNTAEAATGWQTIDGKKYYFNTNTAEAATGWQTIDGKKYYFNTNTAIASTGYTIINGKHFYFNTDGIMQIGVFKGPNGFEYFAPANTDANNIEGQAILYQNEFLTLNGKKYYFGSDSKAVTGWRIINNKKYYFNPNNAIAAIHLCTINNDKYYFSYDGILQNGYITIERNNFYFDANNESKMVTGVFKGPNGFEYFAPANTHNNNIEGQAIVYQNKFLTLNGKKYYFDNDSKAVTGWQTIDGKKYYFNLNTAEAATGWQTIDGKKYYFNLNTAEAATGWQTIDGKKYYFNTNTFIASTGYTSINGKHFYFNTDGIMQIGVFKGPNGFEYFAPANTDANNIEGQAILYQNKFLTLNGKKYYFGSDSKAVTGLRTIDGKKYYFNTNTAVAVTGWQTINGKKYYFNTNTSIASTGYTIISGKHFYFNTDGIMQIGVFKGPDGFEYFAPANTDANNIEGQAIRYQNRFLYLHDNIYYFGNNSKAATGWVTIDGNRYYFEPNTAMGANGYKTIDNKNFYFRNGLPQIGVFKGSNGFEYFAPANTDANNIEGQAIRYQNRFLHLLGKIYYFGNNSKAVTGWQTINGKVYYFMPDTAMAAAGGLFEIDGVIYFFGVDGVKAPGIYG
binder,measurement,value
"Parent A26.8 VHH (VHH, not shown: small tags and cut ends) VHH: QVKLEESGGGLVQAGGSLRLSCAASERTFSRYPVAWFRQAPGAEREFVAVISSTGTSTYYADSVKGRFTISRDNAKVTVYLQMNNLKREDTAVYFCAVNSQRTRLQDPNEYDYWGQGTQVTVSS",Kd,0.0187 µM
